Legend:
[1] = tested on: Syrian Golden Hamsters, mucositis of the left buccal cheek pouch; experiment: radiation-induced oral mucositis model; assay type: in vivo, hamster; conditions: for % Days ≥3 (percent of animal days with a mucositis score ≥3): Vehicle 59.52%; for Days <3 (animal days with a mucositis score <3) / Days ≥3 (animal days with a mucositis score ≥3): through Day 28; for days of improvement in mucositis scores compared to the Vehicle control group: topical b.i.d.
Procedure: Forty-eight (48) male Syrian Golden Hamsters were used in the study.
Mucositis was induced by administering a single dose of radiation (40 Gy) directed to the left buccal cheek pouch at a rate of 2-2.5 Gy/min administered on Day 0. Radiation was generated with a 160 kilovolt potential (18.75-ma) source at a fecal distance of 10 cm, hardened with a 3.0 mm Al filtration system. Prior to irradiation, animals were anesthetized with an intraperitoneal injection of ketamine (160 mg/kg) and xylazine (8 mg/kg). The left buccal pouch was everted, fixed and isolated using a lead shield. Mucositis was evaluated clinically starting on Day 6 and continuing on alternate days until Day 28. The acute model has little systemic toxicity, resulting in few hamster deaths, thus permitting the use of smaller groups (n=7-8) for initial efficacy studies. It has abo been used to study specific mechanistic elements in the pathogenesis of mucositis.
The animals were divided into 6 treatment groups in which they were administered: Test agents (SG-11 or SG-11V5), a positive control (proprietary to Biomodels, LLC, Watertown, Mass.) or vehicle only were given by topical application to the left cheek pouch as detailed in Table 15 below.
On Day 0, morning dosing was performed at least 1 hour prior to irradiation and at least 1 hour post-irradiation (for PM dose). On Day 28, animals were euthanized and the left cheek pouch rom animals in Groups 1, and Groups 3-6 were excised, placed in a cryovial, snap frozen, and stored at −80° C. until shipment.
Starting on Day 6 and continuing every second day thereafter (Days 8, 10, 12, 14, 16, 18, 20, 22, 24, 26, 28) each animal was photographed and evaluated for mucositis scoring. For the evaluation of mucositis, the animals were anesthetized with an inhalation anesthetic and the left pouch everted. Mucositis was scored visually by comparison to a validated photographic scale (FIG. 37A), ranging from 0 for normal, to 5 for severe ulceration (clinical scoring). In descriptive terms, this scale is defined in Table 16.
A score of 1-2 is considered to represent a mild stage of the disease, whereas a score of […] is considered to indicate moderate to severe ulcerative mucositis. At the conclusion of the experiment, the photographs were randomly numbered and scored by two independent, trained observers who graded the images in blinded fashion using the above-described scale (blinded scoring). Hamsters reaching a mucositis severity score of 4 or higher received buprenorphine (0.5 mg/kg) SC twice a day for 48 hours or until score dropped below 4.
Statistical significance of observed differences was calculated using chi-squared analysis. The significance of differences observed between the control and treatment groups was evaluated by comparing the days with mucositis scores ≥3 and <3 between groups using chi-square analysis. The results of this analysis are shown in Table 17 far the entire study duration (through Day 28). Over the course of the study (Table 17), the percentage of animal days with a score of ≥3 in the Vehicle Group was 59.52%.

[2] = tested on: C57BL/6 mice treated with DSS; experiment: therapeutic DSS model of inflammatory bowel disease, treatment after 7 days DSS (Examples 5, 13B); assay type: in vivo; conditions: for body weight change: 50 nmoles/kg, day 11, p<0.05; for colon weight to length ratio: p<0.01
Procedure: Following a 7-day acclimation period, the mice were provided with drinking water containing 2.5% DSS for 7 days. Fresh 2.5% DSS water was prepared every 2 days during the 7 day DSS administration. For this therapeutic DSS study, SG-11 used to treat the animals was fused at its N-terminus to a FLAG Tag (DYKDDDDK; SEQ ID NO:32).
On day 7, normal drinking water was restored and i.p. treatments of 50 nmole/kg of SG-11 ([…]) or Gly2-GLP2 (0.2 mg/kg) were initiated. Treatments were administered twice a day (b.i.d.), with a morning and evening dose (every 8 and 16 hours) for six days.
Body weight was measured daily during the morning treatment. The colon tissue was then harvested and length was measured in centimeters and the tissue was weighed. Fecal material was flushed from the colon and residual PBS removed by gently running the colon tissue through a pair of forceps. The colon tissue was then weighed and colon weight to length ratio in mg/mm was determined. Following weight measurements proximal and distal colon tissue was banked for RNA and protein analysis and the remaining tissues was fixed in 10% neutral buffered formalin for histopathology. Statistical analysis was performed by a one-way ANOVA compared to DSS+vehicle for serum 4KDa-FITC translocation, scrum LBP concentrations, colon length, and colon weight to length ratio, while a two-way ANOVA was performed for analysis of body weight. In all analysis, a Fisher's LSD test for multiple comparisons was used. Graphs represent data pooled from two experiments, and are plotted as mean±SEM.
Histopathology analysis was performed on proximal and distal colon tissues from the therapeutic DSS model described above. Proximal (FIG. 13A) and distal (FIG. 13B) colon scores (range 0-4) are presented as well as the total score for the colon which represents the sum of proximal and distal colon scores (Range 0-8) (FIG. 13C). LMA=Loss of mucosal architecture, Edema=Edema, INF=Inflammation, TMI=Transmural inflammation, MH=Mucosal hyperplasia, DYS=Dysplasia. Graphs represent data pooled from two independent experiments, and are plotted as mean±SEM. Statistical analysis was performed by a one-way ANOVA compared to DSS+vehicle followed by a Fisher's LSD test for multiple comparisons.
In the second experiment (Example 13B), mice were provided with drinking water containing 2.5% DSS for 7 days. […] Treatments were administered twice a day (b.i.d.), with a morning and evening dose (every 8 and 16 hours) for 4 days. For both the prophylactic and therapeutic models, fresh 2.5% DSS water was prepared every 2 days during the DSS administration.
At the end of each DSS model study, mice were fasted for 4 hours and then orally gavaged with 600 mg/kg 4KDa dextran labeled with FITC [4KDa-FITC]. One hour after the 4KDa-FITC gavage, mice were euthanized, blood was collected, and FITC signal was measured in serum. […] Data in both graphs are plotted as mean±SEM and each figure represent data from an individual experiment (n=10 per group).
Upon completion of the OSS models above. LBP levels were measured as an inflammation centric readout of barrier function following the protocol detailed in Example 5. Upon completion of both DSS models (Examples 13A and 13B), blood was collected and serum was isolated. LPS binding protein (LBP) levels were measured in serum using a commercially available ELISA Kit (Enzo Lift Sciences).

[3] = 0.75 mg/ml, 0.2 ml topical b.i.d., SG-11 Day 16, SG-11V5 Days 16 and 18, Vehicle 3.29
[4] = Example 5, 50 nmole/kg i.p. b.i.d. six days after 7 days DSS
[5] = Example 13B, 50 nmole/kg i.p. b.i.d. 4 days after 7 days DSS

B1: SG-11: Roseburia hominis protein comprising SEQ ID NO:3; tested as SEQ ID NO:5, SEQ ID NO:7 or FLAG-tagged SEQ ID NO:9 (protein, listed as Rosburia hominis)
chain: LEGEESVVYVGKKGVIASLDVETLDQSYYDETELKSYVDAEVEDYTAEHGKNAVKVESLKVEDGVAKLKMKYKTPEDYTAFNGIELYQGKVVASLAAGYVYDGEFARVEEGKVVGAATKQDIYSEDDLKVAIIRANTDVKVDGEICYVSCQNVKLTGKDSVSIRDGYYLETGSVTASVDVTGQESVGTEQLSGTEQMEMTGEPVNADDTEQTEAAAGDGSFETDVYTFIVYK
- % Days ≥3 (percent of animal days with a mucositis score ≥3) ([1]; 0.75 mg/mL): 50.00%
- Days <3 (animal days with a mucositis score <3) ([1]; 0.75 mg/mL): 96
- Days ≥3 (animal days with a mucositis score ≥3) ([1]; 0.75 mg/mL): 96
- peak mean mucositis score (scale 0-5) [1, 3]: 3.25
- days of improvement in mucositis scores compared to the Vehicle control group [1]: one day of improvement
- histopathology: inflammation and transmural inflammation scores ([2]; Example 5): no change
- histopathology: loss of mucosal architecture score ([2]; Example 5): modest, but significant reduction
- body weight [2, 4]: significant improvements
- colon length [2, 4]: significant improvements
- colon weight to length [2, 4]: significant improvements
- serum LBP ([2]; Example 5, 50 nmole/kg i.p. b.i.d. six days after 7 days DSS, FLAG-tagged SG-11): no reduction in LBP
- frequency of thick colons ([2]; Example 5, DSS+vehicle 88%, p<0.0001): 25%
- colon length ([2]; Example 13B (FIG. 22B)): significant increase in the colon length
- serum LBP [2, 5]: no reduction in LBP
- body weight change ([2]; Example 13B): statistically improved body weight changes
- colon weight to length ratio ([2]; Example 13B): significantly improved colon weight to length ratios

B2: SG-11V5: variant of SEQ ID NO:7 with N53S, N83S, C147V, C151S (protein)
chain: MLEGEESVVYVGKKGVIASLDVETLDQSYYDETELKSYVDAEVEDYTAEHGKSAVKVESLKVEDGVAKLKMKYKTPEDYTAFSGIELYQGKVVASLAAGYVYDGEFARVEEGKVVGAATKQDIYSEDDLKVAIIRANTDVKVDGEIVYVSSQNVKLTGKDSVSIRDGYYLETGSVTASVDVTGQESVGTEQLSGTEQMEMTGEPVNADDTEQTEAAAGDGSFETDVYTFIVYK
modifications: Artificial variant of SG-11 (N53S, N83S, C147V, C151S)
- Days <3 (animal days with a mucositis score <3) ([1]; 0.075 mg/mL): 106
- Days ≥3 (animal days with a mucositis score ≥3) ([1]; 0.075 mg/mL): 86
- peak mean mucositis score (scale 0-5) ([1]; 0.075 mg/ml topical b.i.d., Days 16 and 18): 3.00
- % Days ≥3 (percent of animal days with a mucositis score ≥3) ([1]; 0.24 mg/mL): 53.65%
- Days <3 (animal days with a mucositis score <3) ([1]; 0.24 mg/mL): 89
- Days ≥3 (animal days with a mucositis score ≥3) ([1]; 0.24 mg/mL): 103
- peak mean mucositis score (scale 0-5) ([1]; 0.24 mg/ml topical b.i.d., Days 16 and 18): 3.13
- Days <3 (animal days with a mucositis score <3) ([1]; 0.75 mg/mL): 120
- Days ≥3 (animal days with a mucositis score ≥3) ([1]; 0.75 mg/mL): 72
- peak mean mucositis score (scale 0-5) [1, 3]: 2.63
- days of improvement in mucositis scores compared to the Vehicle control group [1]: multiple days
- colon length ([2]; Example 13B (FIG. 22B)): significant increase in the colon length
- serum LBP [2, 5]: no reduction in LBP
- body weight change ([2]; Example 13B): statistically improved body weight changes
- colon weight to length ratio ([2]; Example 13B): significantly improved colon weight to length ratios

Source: patent publication US20210380994A1, “LACTOCOCCUS LACTIS EXPRESSION SYSTEM FOR DELIVERING PROTEINS EFFICACIOUS FOR THE TREATMENT OF EPITHELIAL BARRIER FUNCTION DISORDERS” (Second Genome, Inc., priority 2018, published 2021)
